According to patent US20220195015A1 (published 2022):

B1: C002 (antibody, V domains shown)
VH: EVQLVESGGGVVQPGRSLRLSCAASGFTFSIYGMHWVRQAPGKGLEWVAVISYDGSNKYYADSVKGRFTISRDNSKNTLYLQMNSLRAEDTAVYYCAKEGRPSDIVVVVAFDYWGQGTLVTVSS
VL: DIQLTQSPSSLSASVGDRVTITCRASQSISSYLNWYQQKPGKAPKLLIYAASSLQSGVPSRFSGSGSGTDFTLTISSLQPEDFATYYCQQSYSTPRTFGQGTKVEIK
B2: C021 (antibody, V domains shown)
VH: QVQLQESGPGLVKPSQTLSLTCTVSGGSISSGGYYWSWIRQHPGKGLEWIGYIYYSGSTYYNPSLKSRVTISVDTSKNQFSLKLSSVTAADTAVYYCARVWQYYDSSGSFDYWGQGTLVTVSS
VL: not shown

Target: SARS-CoV-2 spike receptor binding domain (RBD), wild type (SARS-CoV-2, UniProt P0DTC2 319-539)
Test: ELISA on coated RBD protein

| Binder | EC50 [ng/mL] |
| --- | --- |
| B1 | 1.98 |
| B2 | 4.19 |
